According to patent US9266964:

Molecular target: T1, human plasma kallikrein (human, UniProt P03952 20-390; P03952 391-638)
T1 construct: two disulfide-linked chains; also called pKal; human pKal
Assay: ELISA; signal on coated biotinylated human plasma kallikrein divided by signal on streptavidin; Fab
From the text: Abbreviations used: "T/B" is the ELISA signal obtained using of the target (biotinylated plasma kallikrein) divided by the ELISA signal of the "background" (streptavidin); both of which were coated on microtiter plates. "nd" is not determined. The symbol "q" refers to the amber suppressible stop codon (TAG), which is translated as glutamine (Q) in strains of E. coli such as the TG1 cells that were used to express the Fab fragments.

T1 sequence (P03952 20-390, chain 1 of 2): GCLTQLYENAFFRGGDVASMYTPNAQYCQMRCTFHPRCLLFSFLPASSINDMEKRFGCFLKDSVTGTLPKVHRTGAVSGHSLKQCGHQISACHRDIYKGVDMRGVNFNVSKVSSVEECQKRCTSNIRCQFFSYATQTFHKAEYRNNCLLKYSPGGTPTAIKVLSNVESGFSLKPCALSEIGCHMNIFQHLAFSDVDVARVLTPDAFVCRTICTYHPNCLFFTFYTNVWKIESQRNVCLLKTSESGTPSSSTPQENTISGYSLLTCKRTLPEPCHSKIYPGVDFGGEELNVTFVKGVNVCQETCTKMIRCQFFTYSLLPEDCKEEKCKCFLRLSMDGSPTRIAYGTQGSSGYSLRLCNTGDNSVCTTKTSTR
T1 sequence (P03952 391-638, chain 2 of 2): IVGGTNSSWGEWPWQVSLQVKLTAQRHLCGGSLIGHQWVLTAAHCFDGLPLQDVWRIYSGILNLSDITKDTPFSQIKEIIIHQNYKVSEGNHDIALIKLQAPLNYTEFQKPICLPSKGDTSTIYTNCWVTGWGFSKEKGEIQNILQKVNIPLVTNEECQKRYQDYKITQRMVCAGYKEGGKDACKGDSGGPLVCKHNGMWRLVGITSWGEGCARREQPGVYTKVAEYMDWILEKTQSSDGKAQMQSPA

Binder	Human pKal ELISA (T/B)
M27-G09 (Fab, V domains shown, Fab fragment (E. coli TG1); printed HC runs into the start of CH1) VH: EVQLLESGGGLVQPGGSLRLSCAASGFTFSEYDMAWVRQAPGKGLEWVSYIVSSGGFTSYADSVKGRFTISRDNSKNTLYLQMNSLRAEDTAVYYCTTWAGWIAAADYWGQGTLVTVSS VL: DIQMTQSPSSVSASVGDRITITCRTRQSISNYLNWYQQKPGEPPKLLIFAASSLQSGVPSRFSGSGTGTEFTLTISSLQPEDLAIYYCQQSYDIPFTFGQGTKLEIK	2.2 T/B (target signal / background signal)
M27-B01 (Fab, V domains shown, Fab fragment (E. coli TG1); printed HC runs into the start of CH1) VH: EVQLLESGGGLVQPGGSLRLSCAASGFTFSDYTMWWVRQAPGKGLEWVSSISSSGGITFYADSVKGRFTISRDNSKNTLYLQMNSLRAEDTAVYYCARSADTAMGGAFDIWGQGTMVTVSS VL: not shown	33.1 T/B (target signal / background signal)
M12-A08 (Fab, V domains shown, Fab fragment (E. coli TG1); printed HC runs into the start of CH1) VH: EVQLLESGGGLVQPGGSLRLSCAASGFTFSWYYMGWVRQAPGKGLEWVSWIVSSGGLTLYADSVKGRFTISRDNSKNTLYLQMNSLRAEDTAMYYCARTTVTTGDAFDIWGQGTMVTVSS VL: DIQMTQSPSSLSASVGDRVTITCRASQSISRYLNWYQQKPGKAPKLLIYAASTLETGVPSRFSGSGSGTDFTLTITTLQPEDFVIYYCQQSYSTPYTFGQGTKLEIK	40.4 T/B (target signal / background signal)
M27-A10 (Fab, V domains shown, Fab fragment (E. coli TG1); printed HC runs into the start of CH1) VH: EVQLLESGGGLVQPGGSLRLSCAASGFTFSWYRMDWVRQAPGKGLEWVSSIWPSGGLTSYADSVKGRFTISRDNSKNTLYLQMNSLRAEDTAVYYCARGWAPGGDAFDIWGQGTMVTVSS VL: DIQMTQSPSSLSASVGDRVTITCRASQSISAYLNWYQQKPGKAPQLLMYGVGSLQSGVPSRFSGSGSGTDFTLTISSLQPEDFATYFCQQGYTTPVTFGGGTKVEIK	3.2 T/B (target signal / background signal)
M12-D10 (Fab, V domains shown, Fab fragment (E. coli TG1); printed HC runs into the start of CH1) VH: EVQLLESGGGLVQPGGSLRLSCAASGFTFSNYPMDWVRQAPGKGLEWVSSISSSGGWTNYADSVKGRFTISRDNSKNTLYLQMNSLRAEDTAVYYCATDTSGSYLGFDYWGQGTLVTVSS VL: not shown	9.9 T/B (target signal / background signal)
M11-E06 (Fab, V domains shown, Fab fragment (E. coli TG1); printed HC runs into the start of CH1) VH: EVQLLESGGGLVQPGGSLRLSCAASGFTFSQYAMHWVRQAPGKGLEWVSSIYPSGGFTLYADSVKGRFTISRDNSKNTLYLQMNSLRAEDTAMYYCARGGWLAGGELLNWGQGTLVTVSS VL: DIQMTQSPSSLSASIGDRVTISCRASRGIGTYLNWYQQHAGKAPKLLIRAASSLETGVPPRFSGSGSGTDFTLTISSLQSDDFATYYCQESFTNVYNFGQGTKLEIK	12.6 T/B (target signal / background signal)
M27-H10 (Fab, V domains shown, Fab fragment (E. coli TG1); printed HC runs into the start of CH1) VH: EVQLLESGGGLVQPGGSLRLSCAASGFTFSAYQMAWVRQAPGKGLEWVSVIYSSGGYTDYADSVKGRFTISRDNSKNTLYLQMNSLRAEDTAVYYCARHNWNDGAFDIWGQGTMVTVSS VL: DIQMTQSPSSLSASVGDRVTITCRASQSISNYLNWYQQKPGKAPKFLIYAASSLQSGVPSRFSGSGSGTDFTLSISSLQPEDFATYYCQQSYSTPQTFGQGTKVEMK	12.4 T/B (target signal / background signal)
M27-F04 (Fab, V domains shown, Fab fragment (E. coli TG1); printed HC runs into the start of CH1) VH: EVQLLESGGGLVQPGGSLRLSCAASGFTFSWYPMTWVRQAPGKGLEWVSSIGPSGGQTIYADSVKGRFTISRDNSKNTLYLQMNSLRAEDTAVYYCTTEYGDYGGGFDPWGQGTLVTVSS VL: not shown	10.5 T/B (target signal / background signal)
M12-B04 (Fab, V domains shown, Fab fragment (E. coli TG1); printed HC runs into the start of CH1) VH: EVQLLESGGGLVQPGGSLRLSCAASGFTFSLYSMYWVRQAPGKGLEWVSRIRPSGGGTVYADSVKGRFTISRDNSKNTLYLQMNSLRAEDTAVYYCARDPLYSSGDVWGQGTTVTVSS VL: DIQMTQSPSSLSASVGDRVTITCRASQGIRNDLGWYQHKPGKAPKLLIYAASILQSGVPSRFSGTASGTDFTLTISSLQPEDFATYFCLQDYEYPLTFGGGTKLDIK	18 T/B (target signal / background signal)
M27-B12 (Fab, V domains shown, Fab fragment (E. coli TG1); printed HC runs into the start of CH1) VH: EVQLLESGGGLVQPGGSLRLSCAASGFTFSWYQMMWVRQAPGKGLEWVSSISPSGGITEYADSVKGRFTISRDNSKNTLYLQMNSLRAEDTAVYYCARDRSSGWYYYGMDVWGQGTTVTVSS VL: QYELTQPPAVSVSPGQTATITCSGDKLGDEYAAWYQQKPGQSPVLVIYQDRKRPSGIPERFSGSNFGNTATLTITGTQVMDEADYYCQAWGKRNVVFGGGTKLTVL	2.3 T/B (target signal / background signal)

Next, values leading:

Human pKal ELISA (T/B)	Binder
11.7 T/B (target signal / background signal)	M11-E01 (Fab, V domains shown, Fab fragment (E. coli TG1); printed HC runs into the start of CH1) VH: EVQLLESGGGLVQPGGSLRLSCAASGFTFSTYEMYWVRQAPGKGLEWVSGIGSSGGMTMYADSVKGRFTISRDNSKNTLYLQMNSLRAEDTAMYYCAREQPGIAALQFWGQGTLVTVSS VL: not shown
23.6 T/B (target signal / background signal)	M11-G09 (Fab, V domains shown, Fab fragment (E. coli TG1); printed HC runs into the start of CH1) VH: EVQLLESGGGLVQPGGSLRLSCAASGFTFSLYNMTWVRQAPGKGLEWVSYIYPSGGGTHYADSVKGRFTISRDNSKNTLYLQMNSLRAEDTAVYYCARDTGFWSADAFDIWGQGTMVTVSS VL: DIQMTQSPSSLSASVGDRVTITCRTSQGINHYLNWYQQKPGKAPKILVFAASELQTGVPSRFSGTGSGTSYTLTITSLQPEDVATYYCQQTYTSPYTFGQGTKLEVK
31.4 T/B (target signal / background signal)	M27-G01 (Fab, V domains shown, Fab fragment (E. coli TG1); printed HC runs into the start of CH1) VH: EVQLLESGGGLVQPGGSLRLSCAASGFTFSLYRMFWVRQAPGKGLEWVSSIWSSGGPTMYADSVKGRFTISRDNSKNTLYLQMNSLRAEDTAVYYCAREYPSTYYFDYWGQGTLVTVSS VL: DIQMTQSPSSLSASVGDRVTITCRASQSISTYLNWYQQKPGKAPKLLIYGASSLQSGVPSRFSGSGSGTDFTLTISSLQPEDFTIYYCQQSYSDPYTFGQGTKLDIK
43.2 T/B (target signal / background signal)	M11-E04 (Fab, V domains shown, Fab fragment (E. coli TG1); printed HC runs into the start of CH1) VH: EVQLLESGGGLVQPGGSLRLSCAASGFTFSMYHMNWVRQAPGKGLEWVSGIVSSGGVTFYADSVKGRFTISRDNSKNTLYLQMNSLRAEDTAVYYCARITTVTTGGAFDIWGQGTMVTVSS VL: DIQMTQSPSSLSASVGDRVTITCRASQSISIYLTWYQHRPGKAPNLLIYGAATLQTGVPSRFSGSGSGTDFTLTIRGLQPEDFATYYCQQTFSLPRTFGQGTKLEIK
10 T/B (target signal / background signal)	M27-F11 (Fab, V domains shown, Fab fragment (E. coli TG1); printed HC runs into the start of CH1) VH: EVQLLESGGGLVQPGGSLRLSCAASGFTFSSYHMMWVRQAPGKGLEWVSSIYPSGGATMYADSVKGRFTISRDNSKNTLYLQMNSLRAEDTAMYYCARDGYHYGDYTYFQHWGQGTLVTVSS VL: DIQMTQSPSFLSASVGDRVTITCRASQGISSYLAWYQQKPGKAPKLLIYAASSLQSGVPSRFSGSGSGTDFTLTISSLQPEDFATYYCQQSYNTLRTFGPGTKVDLK
4.1 T/B (target signal / background signal)	M27-G04 (Fab, V domains shown, Fab fragment (E. coli TG1); printed HC runs into the start of CH1) VH: EVQLLESGGGLVQPGGSLRLSCAASGFTFSAYYMVWVRQAPGKGLEWVSYISPSGGQTQYADSVKGRFTISRDNSKNTLYLQMNSLRAEDTAVYYCAREAISSSSFDYWGQGTLVTVSS VL: DIQMTQSPSSLSASVGDRVTITCRASQRISYYLTWYQQKPGKVPKLLIYAASSLESGVPSRFSGSGSGTDFTLTISNLQPEDFATYYCQQAFSTPFTFGGGTKVEIK
25 T/B (target signal / background signal)	M11-A10 (Fab, V domains shown, Fab fragment (E. coli TG1); printed HC runs into the start of CH1) VH: EVQLLESGGGLVQPGGSLRLSCAASGFTFSNYWMMWVRQAPGKGLEWVSGIGSSGGFTSYADSVKGRFTISRDNSKNTLYLQMNSLRAEDTAVYYCAKGSYSDYGVFESWGQGTLVTVSS VL: DIQMTQSPSSLSASVGDRVAITCRASQSIDTYLNWYQQKPGKAPKLLIYDASNLEIGVPSRFSGSGSGTDFTFIINSLQPEDVATYYCQHYLYAPYSFGQGTKLEIK
8.3 T/B (target signal / background signal)	M12-C10 (Fab, V domains shown, Fab fragment (E. coli TG1); printed HC runs into the start of CH1 and printed LC into the start of the lambda constant region (GQPK)) VH: EVQLLESGGGLVQPGGSLRLSCAASGFTFSDYEMHWVRQAPGKGLEWVSGISPSGGKTQYADSVKGRFTISRDNSKNTLYLQMNSLRAEDTAVYYCARDLKWGGRGSPDWYFDLWGRGTLVTVSS VL: QSALTQPPSVSVSPGQTASITCSGDKLGEKYVSWYQQKPGQSPVVVIYQDNKRPSGIPERFSGSNSGNTATLTISGTQAVDEADYYCQAWDSYTVVFGGGSKLTVLG
48 T/B (target signal / background signal)	M12-E06 (Fab, V domains shown, Fab fragment (E. coli TG1); printed HC runs into the start of CH1) VH: EVQLLESGGGLVQPGGSLRLSCAASGFTFSQYKMLWVRQAPGKGLEWVSGIGPSGGLTAYADSVKGRFTISRDNSKNTLYLQMNSLRAEDTAVYYCARAPWFGELGMDVWGQGTTVTVSS VL: DIQMTQSPSSLSASVGDRVSITCRASQSISTYLNWYQHKPGKAPTLLIYGAFSLQSGVPSRFSGSGSGTDFALTISSLQPEDFATYYCQQSHSTPPTFGQGTRVEIK
35.9 T/B (target signal / background signal)	M27-E03 (Fab, V domains shown, Fab fragment (E. coli TG1); printed HC runs into the start of CH1) VH: EVQLLESGGGLVQPGGSLRLSCAASGFTFSSYMMHWVRQAPGKGLEWVSGIYPSGGWTDYADSVKGRFTISRDNSKNTLYLQMNSLRAEDTATYYCARLVAGLDAFDIWGQGTMVTVSS VL: not shown
41.4 T/B (target signal / background signal)	M11-E05 (Fab, V domains shown, Fab fragment (E. coli TG1); printed HC runs into the start of CH1) VH: EVQLLESGGGLVQPGGSLRLSCAASGFTFSWYTMGWVRQAPGKGLEWVSWIYFGGLTTYADSVKGRFTISRDNSKNTLYLQMNSLRAEDTAVYYCARLGGPLDAFDIWGQGTMVTVSS VL: DIQMTQSPSSLSASVGDTVTITCRTSQTINNYLNWYQQRPGEAPKVLIYATHTLESGVPSRFSGSGSGTDFTLTIGSLQPEDFATYYCQQSFAFPYTFGQGTKVEIT
7 T/B (target signal / background signal)	M12-C09 (Fab, V domains shown, Fab fragment (E. coli TG1); printed HC runs into the start of CH1; tied to M12-C09 by its CDRs; also called M12-009) VH: EVQLLESGGGLVQPGGSLRLSCAASGFTFSSYAMVWVRQAPGKGLEWVSSIGSSGGFTLYADSVKGRFTISRDNSKNTLYLQMNSLRAEDTAVYYCASMNLGGGDAFDIWGQGTMVTVSS VL: DIQMTQSPSSLSASVGDRVTITCRASQSIGIYLNWYHQKPGKAPNLLIYGASSLQSGVPSRFSGSGSGTDFTLTISSLQPGDFATYYCQHSYSTPFTFGGGTKVEIK
4.9 T/B (target signal / background signal)	M11-G12 (Fab, V domains shown, Fab fragment (E. coli TG1); printed HC runs into the start of CH1) VH: EVQLLESGGGLVQPGGSLRLSCAASGFTFSQYPMNWVRQAPGKGLEWVSSISSSGGFTTYADSVKGRFTISRDNSKNTLYLQMNSLRAEDTAVYYCAREEQQGGFDYWGQGTLVTVSS VL: DIQMTQSPSSLSAFVGDRVSITCRASQTISVYVNWYQHKSGQAPKLLIYGASSLQSGVPSRFSGSGSGTDFTLTISSLQPEDFATYFCQQSYSIPFTFGGGTDVQIR
